Patent US20190322748A1 (Hoffmann-La Roche, published 2019)

B1: PD1-0103 (antibody, V domains shown)
VH: EVILVESGGGLVKPGGSLKLSCAASGFSFSSYTMSWVRQTPEKRLDWVATISGGGRDIYYPDSVKGRFTISRDNAKNTLYLEMSSLMSEDTALYYCVLLTGRVYFALDSWGQGTSVTVSS
VL: KIVLTQSPASLPVSLGQRATISCRASESVDTSDNSFIHWYQQRPGQSPKLLIYRSSTLESGVPARFSGSGSRTDFTLTIDPVEADDVATYYCQQNYDVPWTFGGGTKLEIK
notes: Mouse monoclonal antibody
B2: PD1-0078 (antibody, V domains shown)
VH: QVQLQQPGAELVKPGASVKMSCKASGYTFTSTWMHWVKQRPGQGLEWIGAIDPSDSYTTYNQKFKGKATLTVDTSSTTAYMQLSSLTSEDSAVYYCTRSPFDYWGQGTTLTVSS
VL: DIVMTQSHKFMSTSVGDRVSITCKASQDVSTAVAWYQQKPGQSPKLLIYSASYRYTGVPDRFTGSGSGTDFTFAISSVQAEDLAVYYCQQHYSHPFTFGSGTKLEIK
B3: PD1-0050 (antibody, V domains shown)
VH: DVQLQESGPGLVKPSQSLSLTCTVTGYSITSDYAWNWIRQFPGNKLEWMGYITYTGRTSYNPSLKSRISITRDTSKNQFFLQLNSVTTEDTATYYCAREMDYYGSTLDYWGQGTTLTVSS
VL: KIVLTQSPASLAVSLRQRATISCRASESVDRYGNSFIHWYQQKPGQPPKVLIYRASNLESGFPARFSGSGSRTDFTLTIDPVEADDAATYYCQQNNEDPYTFGSGTKLEIK
B4: PD1-0073 (antibody, V domains shown)
VH: EVKLVESGGGLVKPGGSLKLSCAASGFTFSNYGMSWIRQTPEKGLEWVATISGGGRDTYYPDSVKGRFTISRDNVKNNLYLQMSSLRSEDTAFYYCASYYYGIDYWGQGTSVTVSS
VL: DIVMTQPHKFMSTSVGDRVRITCKASQDVTTAVAWYQQKPGQSPKLLIYWASTRHTGVPDRFTGSGSGTEFTLTISSVQAEDLALYYCQQHYSIPWTFGGGTKLEIK
B5: Tim3_0038 (antibody, V domains shown)
VH: EVQLQQSGAEPLKPGASVKLTCTTSGFNIKDYYIHWVKQRSDQGLEWIGRIDPEDGELIYAPKFQDKATITVDTSSNIAYLQLNSLTSEDTAVYYCSRDHGYVGWFAYWGQGTLVTVSA
VL: NVVMTQSPKSMIMSVGQRVTLNCKASENVDTYVSWYQQKPEQSPKLLIYGASNRYTGVPDRFTGSRSATDFTLTISSVQAEDLAVYYCGQSYSYPWTFGGGTKLEFR
B6: Chimeric TIM3-0028 (antibody, human IgG1, V domains shown)
VH: EVQLQQSVAELVRPGASVKLSCTASGFNIKTTYMHWVKQRPEQGLEWIGRIDPADDNTKYAPKFQGKATITADTSSNTAYLQLSSLTSEDAAIYYCVRDFGYVAWFAYWGQGTLVTFSA
VL: NIVMTPTPKFLPVSSGDRVTMTCRASQSVDNYVAWYQQKPGQSPKLLIYYASNRYIGVPDRFTGSGSGTDFTFTISSVQVEDLAVYFCQQHYSSPYTFGSGTKLEIK
notes: also called aTIM3-chi28
B7: PD1-0098 (antibody, V domains shown)
VH: DVQLQESGPGLVKPSQSLSLTCTVTGYSITSDYAWNWIRQFPGDKLEWLGYITYSGFTNYNPSLKSRISISRDTSKNQFFLQLNSVATEDTATYYCARWHGSAPWYFDYWGRGTTLTVSS
VL: DVLMTQTPLSLPVSLGDQASISCRSSQNIVHSDGNTYLEWYLQKPGQSPNLLIYKVSRRFSGVPDRFSGSGSGTDFTLKISRVEAEDLGVYYCFQGSHFPLTFGAGTKLELK
B8: PD1-0069 (antibody, V domains shown)
VH: QVQLQQSGPELVRPGVSVKISCKGSGYTFTDYAMHWVKQSHARTLEWIGVISTYSGDTNYNQKFKDKATMTVDKSSSTAYLELARMTSEDSAIYYCARLGITTGFAYWGQGTLVTVSA
VL: DIVLTQSPASLAVSLGQRATISCRASKGVSTSSYSFMHWYQQKPRQPPKLLIKYASYLESGVPARFSGSGSGTDFTLNIHPVEEEDAATYYCHHSREFPWTFGGGTKLEIK
B9: PD1-0102 (antibody, V domains shown)
VH: DVQLQESGPDLVKPSQSLSLTCTVTGYSITSGYSWHWIRQFPGNKLEWMGFIHSSGDTNYNPSLKSRISFTRDTSKNQFFLQLSSLTDEDTATYYCATYRNWYFDVWGAGTTVTVSS
VL: DIVMTQSPSSLTVTAGEKVTMRCKSSQSLLNSGTQKNYLTWYQQKPGQPPKLLIYWASTRESGVPNRFTGSGSGTDFTLTISSVQAEDLSVYYCQSDYTFPLTFGGGTKLELK
B10: Tim3_0016 (antibody, V domains shown)
VH: QVTLKESGPGILQPSQTLRLTCSFSGFSLSTSGMSVGWIRQPSGKGLEWLAHIWLNDDVFFNPALKSRLTISKDTSNNQVFLQIASVVTADTATYYCVRANGYLYALDYWGQGTSVTVSS
VL: QIVLTQSPAIMSASPGQKVTITCSASSSVNYTQWYQQKLGSSPKLWIYDAFKLAPGVPARFSGSGTGTSYSLTISSMEAEDAASYFCHQWSSYPWTFGGGTKLEIK
B11: Tim3_0018MutNQ (antibody, V domains shown)
VH: QVTLKESGPGILQPSQTLSLTCSFSGFSLSTSGMSVGWIRQPSGKGLEWLAHIWLNDDVFFNPALKRRLTISKDTSNNQVFLQIASVVTADTATYYCVRANGYLYALDYWGQGISVTVSS
VL: QIVLTQSPAIMSASPGQKVTITCSASSSVQYTQWYQQKLGSSPKLWIYDAFKLAPGVPARFSGSGTGTSYSLTISSMEAEDAASYFCHQWSSYPWTFGGGTKLEIK
B12: Tim3_0016MutNQ (antibody, V domains shown)
VH: QVTLKESGPGILQPSQTLRLTCSFSGFSLSTSGMSVGWIRQPSGKGLEWLAHIWLNDDVFFNPALKSRLTISKDTSNNQVFLQIASVVTADTATYYCVRANGYLYALDYWGQGTSVTVSS
VL: QIVLTQSPAIMSASPGQKVTITCSASSSVQYTQWYQQKLGSSPKLWIYDAFKLAPGVPARFSGSGTGTSYSLTISSMEAEDAASYFCHQWSSYPWTFGGGTKLEIK
B13: Tim3_0018MutNS (antibody, V domains shown)
VH: QVTLKESGPGILQPSQTLSLTCSFSGFSLSTSGMSVGWIRQPSGKGLEWLAHIWLNDDVFFNPALKRRLTISKDTSNNQVFLQIASVVTADTATYYCVRANGYLYALDYWGQGISVTVSS
VL: QIVLTQSPAIMSASPGQKVTITCSASSSVSYTQWYQQKLGSSPKLWIYDAFKLAPGVPARFSGSGTGTSYSLTISSMEAEDAASYFCHQWSSYPWTFGGGTKLEIK
B14: Tim3_0016MutNS (antibody, V domains shown)
VH: QVTLKESGPGILQPSQTLRLTCSFSGFSLSTSGMSVGWIRQPSGKGLEWLAHIWLNDDVFFNPALKSRLTISKDTSNNQVFLQIASVVTADTATYYCVRANGYLYALDYWGQGTSVTVSS
VL: QIVLTQSPAIMSASPGQKVTITCSASSSVSYTQWYQQKLGSSPKLWIYDAFKLAPGVPARFSGSGTGTSYSLTISSMEAEDAASYFCHQWSSYPWTFGGGTKLEIK

Legend:
[1] = molecular target: T1, biotinylated cynoPD1-ECD-Biotin (cynomolgus); test: ELISA on coated cynoPD1-ECD-Biotin
T1 construct: extracellular domain; also called cyPD1
Description: After washing (3×90 μl/well with PBST-buffer) 25 μl anti PD1 samples or reference antibodies (human anti PD1; Roche) were added and incubated 1 h at RT on shaker. After washing (3×90 μl/well with PBST-buffer) 25 μl/well goat-anti-human H+L-POD (JIR, JIR109-036-088) was added in 1:1000 dilution and incubated at RT for 1 h on shaker.

[2] = molecular target: T2, biotinylated PD1-ECD-AviHis (human, UniProt Q15116 25-170, biotinylated, site not stated); test: ELISA on coated biotinylated PD1-ECD-AviHis
T2 construct: also called huPD1; hu PD1

[3] = molecular target: T2, biotinylated PD1-ECD-AviHis; test: ELISA, inhibition of PD-L1 Fc binding to coated PD1-ECD-AviHis
[4] = molecular target: T2, biotinylated PD1-ECD-AviHis; test: ELISA, inhibition of PD-L2 Fc binding to coated PD1-ECD-AviHis
Description: After washing (3×90 μl/well with PBST-buffer) 25 μl anti PD1 samples or reference antibodies (mouse anti huPD1; Roche) were added and incubated 1 h at RT on shaker.

[5] = molecular target: T3, full-length human Tim3 on cells (CHO-K1 stably transfected with plasmid 15312_hTIM3-fl_pUC_Neo) (human, UniProt Q8TDQ0 22-301); test: cell-based or functional assay
[6] = molecular target: T2, biotinylated PD1-ECD-AviHis; test: ELISA on coated biotinylated PD1-ECD-AviHis; remark: listed apart in the source
Description: After washing (3×90 μl/well with PBST-buffer) 25 μl anti PD1 antibody samples were added in increasing concentrations and incubated 1 h at RT. After washing (3×90 μl/well with PBST-buffer) 25 μl/well goat-anti-human H+L-POD (JIR, JIR109-036-098) was added in 1:5000 dilution and incubated at RT for 1 h on a shaker.

Tim3-ECD-His-Biotin [7] = molecular target: T4, Tim3-ECD-His-Biotin (human, UniProt Q8TDQ0 22-202, biotinylated with BirA Ligase, site not stated); test: ELISA on human Tim3
T4 construct: also called human Tim3 (ELISA); Biochem Human

[8] = molecular target: T3, full-length human Tim3 on cells (CHO-K1 …); test: cellular ELISA on CHO-TIM3
Description: (§1) Then the reaction was stopped by addition of 25 μl/well 1N HCL-solution.

Tim3-ECD-His-Biotin [9] = molecular target: T4, Tim3-ECD-His-Biotin; test: ELISA on human Tim3 (values in relation to the samples max value)
Description: After washing (3×90 μl/well with PBST-buffer) 25 μl aTim3 samples or diluted (1:2 steps) reference antibody aTim3 F38-2E2 (Biolegend) was added and incubated 1 h at RT. After washing (3×90 μl/well with PBST-buffer) 25 μl/well sheep-anti-mouse-POD (GE NA9310V) was added in 1:9000 dilution and incubated at RT for 1 h while shaking at 400 rpm rotation. After washing (4×90 μl/well with PBST-buffer) 25 μl/well TMB substrate (Calbiochem, #CL07) was added and incubated until OD 1.5-2.5. Then the reaction was stopped by addition of 25 μl/well 1N HCL-solution.

[10] = molecular target: T3, full-length human Tim3 on cells (CHO-K1 …); test: cellular ELISA on CHO-TIM3 (values in relation to the samples max value)
Description: as §1

| Binder | EC50 [1] [µg/mL] | EC50 [2] [µg/mL] | IC50 [3] [µg/mL] | IC50 [4] [µg/mL] | further results |
| --- | --- | --- | --- | --- | --- |
| B1 | 0.0369 | 0.0337 | 0.182 | 0.051 | – |
| B2 | 0.0224 | 0.0263 | – | 0.086 | – |
| B3 | 0.0098 | 0.0179 | 0.128 | 0.034 | – |
| B4 | 0.0083 | 0.0151 | 0.124 | 0.065 | – |
| B5 | – | – | – | – | IFN-gamma release in MLR at 1 µg/ml antibody, % of rec hu IL-2 (20 EU/ml) = 100% [5]: 1%; IFN-gamma release in MLR at 10 µg/ml antibody, % of rec hu IL-2 (20 EU/ml) = 100% [5]: 38%; IFN-gamma release in MLR at 40 µg/ml antibody, % of rec hu IL-2 (20 EU/ml) = 100% [5]: 51% |
| B6 | – | – | – | – | binding result [6]: no binding |
| B7 | 0.0546 | 0.0508 | 0.174 | 0.045 | – |
| B8 | 0.0227 | 0.0457 | 0.225 | 0.089 | – |
| B9 | 0.0527 | 0.0342 | > 35.5 | 0.14 | – |
| B10 | – | – | – | – | IFN-gamma release in MLR at 1 µg/ml antibody, % of rec hu IL-2 (20 EU/ml) = 100% [5]: 7%; IFN-gamma release in MLR at 10 µg/ml antibody, % of rec hu IL-2 (20 EU/ml) = 100% [5]: 22% |
| B11 | – | – | – | – | Inflexion point (Tim3-ECD-His-Biotin [7]): 10.8 ng/mL; Inflexion point [8]: 12.8 ng/mL; EC50 (Tim3-ECD-His-Biotin [9]): 0.012 µg/mL; EC50 [10]: 0.0134 µg/mL |
| B12 | – | – | – | – | Inflexion point (Tim3-ECD-His-Biotin [7]): 5.7 ng/mL; Inflexion point [8]: 5.4 ng/mL; EC50 (Tim3-ECD-His-Biotin [9]): 0.0076 µg/mL; EC50 [10]: 0.0063 µg/mL |
| B13 | – | – | – | – | Inflexion point (Tim3-ECD-His-Biotin [7]): 6.5 ng/mL; Inflexion point [8]: 11.1 ng/mL; EC50 (Tim3-ECD-His-Biotin [9]): 0.0103 µg/mL; EC50 [10]: 0.0112 µg/mL |
| B14 | – | – | – | – | Inflexion point (Tim3-ECD-His-Biotin [7]): 5.5 ng/mL; Inflexion point [8]: 8.5 ng/mL; EC50 (Tim3-ECD-His-Biotin [9]): 0.0085 µg/mL; EC50 [10]: 0.0091 µg/mL |
